Assay results: patent US20220389118A1 (Chugai, published 2022)

T1: human FcγRIIb extracellular domain with C-terminal His tag (human, UniProt P31994 43-217)
T1 construct: extracellular domain
T1 sequence (looked up): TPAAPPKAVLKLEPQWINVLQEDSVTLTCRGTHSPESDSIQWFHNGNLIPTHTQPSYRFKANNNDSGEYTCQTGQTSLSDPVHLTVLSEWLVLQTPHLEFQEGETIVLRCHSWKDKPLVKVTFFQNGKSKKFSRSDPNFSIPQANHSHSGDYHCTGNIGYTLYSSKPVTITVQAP

T2: human FcγRIIa type R extracellular domain with C-terminal His tag (human, UniProt P12318 34-217)
T2 construct: extracellular domain; also called FcγRIIaR; FcγRIIa(R)
T2 sequence (looked up): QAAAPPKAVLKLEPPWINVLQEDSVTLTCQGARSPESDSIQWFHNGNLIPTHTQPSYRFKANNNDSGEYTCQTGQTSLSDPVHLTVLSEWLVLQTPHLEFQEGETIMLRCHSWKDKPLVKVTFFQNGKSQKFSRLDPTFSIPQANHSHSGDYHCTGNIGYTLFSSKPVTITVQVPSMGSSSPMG


Legend:
[1] = target: T1, human FcγRIIb extracellular domain with …; assay: SPR (Biacore), ratio of KDs
[2] = target: T2, human FcγRIIa type R extracellular …; assay: SPR (Biacore)
[3] = target: T3, human FcγRIa extracellular domain with C-terminal His tag (human, UniProt P12314 16-292); assay: SPR (Biacore)
T3 construct: extracellular domain

[4] = target: T1, human FcγRIIb extracellular domain with …; assay: SPR (Biacore)
[5] = target: T2, human FcγRIIa type R extracellular …; assay: SPR (Biacore), parent IL6R-B3/IL6R-L
[6] = target: T1, human FcγRIIb extracellular domain with …; assay: SPR (Biacore), parent IL6R-B3/IL6R-L

T3 sequence (P12314 16-292): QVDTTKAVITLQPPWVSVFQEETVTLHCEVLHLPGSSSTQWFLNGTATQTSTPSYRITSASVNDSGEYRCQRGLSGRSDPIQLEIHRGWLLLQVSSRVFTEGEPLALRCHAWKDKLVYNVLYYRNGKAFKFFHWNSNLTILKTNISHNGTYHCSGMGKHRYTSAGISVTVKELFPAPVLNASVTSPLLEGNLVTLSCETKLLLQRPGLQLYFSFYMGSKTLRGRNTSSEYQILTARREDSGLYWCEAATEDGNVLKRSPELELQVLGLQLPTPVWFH

Binder	KD(IIaH)/KD(IIb) [1]	KD(IIaR)/KD(IIb) [1]	Kd [2]	Kd [3]	Kd [4]	KD(IIaR) parent/KD(IIaR) altered polypeptide [5]	KD(IIb) parent/KD(IIb) altered polypeptide [6]
IL6R-BP262/IL6R-L (antibody, human IgG1, kappa, copies: 2 + 2) heavy: QVQLQESGPGLVKPSETLSLTCAVSGHSISHDHAWSWVRQPPGEGLEWIGFISYSGITNYNPSLQGRVTISRDNSKNTLYLQMNSLRAEDTAVYYCARSLARTTAMDYWGEGTLVTVSSASTKGPSVFPLAPSSKSTSGGTAALGCLVKDYFPEPVTVSWNSGALTSGVHTFPAVLQSSGLYSLSSVVTVPSSSLGTQTYICNVNHKPSNTKVDKKVEPKSCDKTHTCPPCPAPELLGDDSVFLFPPKPKDTLMISRTPEVTCVVVDVSEEDGEVKFNWYVDGVEVHNAKTKPREEQYNSTYRVVSVLTVLHQDWLNGKEYKCKVSNKALPAPIEKTISKAKGQPREPQVYTLPPSRDELTKNQVSLTCLVKGFYPSDIAVEWESNGQPENNYKTTPPVLDSDGSFFLYSKLTVDKSRWQQGNVFSCSVMHEALHNHYTQESLSLSP light: not shown	375	17	2 µM	0.01 µM	0.12 µM	0.5	25.8
IL6R-BP269/IL6R-L (antibody, human IgG1, kappa, copies: 2 + 2) heavy: QVQLQESGPGLVKPSETLSLTCAVSGHSISHDHAWSWVRQPPGEGLEWIGFISYSGITNYNPSLQGRVTISRDNSKNTLYLQMNSLRAEDTAVYYCARSLARTTAMDYWGEGTLVTVSSASTKGPSVFPLAPSSKSTSGGTAALGCLVKDYFPEPVTVSWNSGALTSGVHTFPAVLQSSGLYSLSSVVTVPSSSLGTQTYICNVNHKPSNTKVDKKVEPKSCDKTHTCPPCPAPELLGDDSVFLFPPKPKDTLMISRTPEVTCVVVDVSEEDGEVKFNWYVDGVEVHNAKTKPREEQDNSTYRVVSVLTVLHQDWLNGKEYKCKVSNKALPAPIEKTISKAKGQPREPQVYTLPPSRDELTKNQVSLTCLVKGFYPSDIAVEWESNGQPENNYKTTPPVLDSDGSFFLYSKLTVDKSRWQQGNVFSCSVMHEALHNHYTQESLSLSP light: not shown	637	19.6	2.2 µM	0.014 µM	0.11 µM	0.5	27.4
IL6R-BP534/IL6R-L (antibody, human IgG1, kappa, copies: 2 + 2) heavy: QVQLQESGPGLVKPSETLSLTCAVSGHSISHDHAWSWVRQPPGEGLEWIGFISYSGITNYNPSLQGRVTISRDNSKNTLYLQMNSLRAEDTAVYYCARSLARTTAMDYWGEGTLVTVSSASTKGPSVFPLAPSSKSTSGGTAALGCLVKDYFPEPVTVSWNSGALTSGVHTFPAVLQSSGLYSLSSVVTVPSSSLGTQTYICNVNHKPSNTKVDKKVEPKSCDKTHTCPPCPAPDLLGDDSVFLFPPKPKDTLMISRTPEVTCVVIDVSEEDGEVKFNWYVDGVEVHNAKTKPREEQDNSTYRVVSVLTVLHQDWLNGKEYKCKVSNKALPRPIEKTISKAKGQPREPQVYTLPPSRDELTKNQVSLTCLVKGFYPSDIAVEWESNGQPENNYKTTPLVLDSDGSFFLYSKLTVDKSRWQQGNVFSCSVMHEALHNHYTQESLSLSP light: not shown			0.091 µM	0.0093 µM	0.003 µM		
IL6R-BP532/IL6R-L (antibody, human IgG1, kappa, copies: 2 + 2) heavy: QVQLQESGPGLVKPSETLSLTCAVSGHSISHDHAWSWVRQPPGEGLEWIGFISYSGITNYNPSLQGRVTISRDNSKNTLYLQMNSLRAEDTAVYYCARSLARTTAMDYWGEGTLVTVSSASTKGPSVFPLAPSSKSTSGGTAALGCLVKDYFPEPVTVSWNSGALTSGVHTFPAVLQSSGLYSLSSVVTVPSSSLGTQTYICNVNHKPSNTKVDKKVEPKSCDKTHTCPPCPAPDLLGDDSVFLFPPKPKDTLMISRTPEVTCVVIDVSEEDGEVKFNWYVDGVEVHNAKTKPREEQDNSTYRVVSVLTVLHQDWLNGKEYKCKVSNKALPRPIEKTISKAKGQPREPQVYTLPPSRDELTKNQVSLTCLVKGFYPSDIAVEWESNGQPENNYKTTPMVLDSDGSFFLYSKLTVDKSRWQQGNVFSCSVMHEALHNHYTQESLSLSP light: not shown			0.094 µM	0.012 µM	0.0032 µM		
IL6R-BP531/IL6R-L (antibody, human IgG1, kappa, copies: 2 + 2) heavy: QVQLQESGPGLVKPSETLSLTCAVSGHSISHDHAWSWVRQPPGEGLEWIGFISYSGITNYNPSLQGRVTISRDNSKNTLYLQMNSLRAEDTAVYYCARSLARTTAMDYWGEGTLVTVSSASTKGPSVFPLAPSSKSTSGGTAALGCLVKDYFPEPVTVSWNSGALTSGVHTFPAVLQSSGLYSLSSVVTVPSSSLGTQTYICNVNHKPSNTKVDKKVEPKSCDKTHTCPPCPAPDLLGDDSVFLFPPKPKDTLMISRTPEVTCVVIDVGEEDGEVKFNWYVDGVEVHNAKTKPREEQDNSTYRVVSVLTVLHQDWLNGKEYKCKVSNKALPRPIEKTISKAKGQPREPQVYTLPPSRDELTKNQVSLTCLVKGFYPSDIAVEWESNGQPENNYKTTPMVLDSDGSFFLYSKLTVDKSRWQQGNVFSCSVMHEALHNHYTQESLSLSP light: not shown			0.12 µM	0.0094 µM	0.0038 µM		

Results, then the binder that gave them:

KD(IIaH)/KD(IIb) [1]	KD(IIaR)/KD(IIb) [1]	Kd [2]	Kd [3]	Kd [4]	KD(IIaR) parent/KD(IIaR) altered polypeptide [5]	KD(IIb) parent/KD(IIb) altered polypeptide [6]	Binder
		0.097 µM	0.0032 µM	0.0026 µM			IL6R-BP552/IL6R-L (antibody, human IgG1, kappa, copies: 2 + 2) heavy: QVQLQESGPGLVKPSETLSLTCAVSGHSISHDHAWSWVRQPPGEGLEWIGFISYSGITNYNPSLQGRVTISRDNSKNTLYLQMNSLRAEDTAVYYCARSLARTTAMDYWGEGTLVTVSSASTKGPSVFPLAPSSKSTSGGTAALGCLVKDYFPEPVTVSWNSGALTSGVHTFPAVLQSSGLYSLSSVVTVPSSSLGTQTYICNVNHKPSNTKVDKKVEPKSCDKTHTCPPCPAPDLLGDDSVFLFPPKPKDTLMISRTPEVTCVVIDVAEEDGDVKFNWYVDGVEVHNAKTKPREEQDNSTYRVVSVLTVLHQDWLNGKEYKCKVSNKALPRPIEKTISKAKGQPREPQVYTLPPSRDELTKNQVSLTCLVKGFYPSDIAVEWESNGQPENNYKTTPPVLDSDGSFFLYSKLTVDKSRWQQGNVFSCSVMHEALHNHYTQESLSLSP light: not shown
		0.16 µM	0.0094 µM	0.0041 µM			IL6R-BP555/IL6R-L (antibody, human IgG1, kappa, copies: 2 + 2) heavy: QVQLQESGPGLVKPSETLSLTCAVSGHSISHDHAWSWVRQPPGEGLEWIGFISYSGITNYNPSLQGRVTISRDNSKNTLYLQMNSLRAEDTAVYYCARSLARTTAMDYWGEGTLVTVSSASTKGPSVFPLAPSSKSTSGGTAALGCLVKDYFPEPVTVSWNSGALTSGVHTFPAVLQSSGLYSLSSVVTVPSSSLGTQTYICNVNHKPSNTKVDKKVEPKSCDKTHTCPPCPAPELLGDDSVFLFPPKPKDTLMISRTPEVTCVVIDVAEEDGDVKFNWYVDGVEVHNAKTKPREEQDNSTYRVVSVLTVLHQDWLNGKEYKCKVSNKALPRPIEKTISKAKGQPREPQVYTLPPSRDELTKNQVSLTCLVKGFYPSDIAVEWESNGQPENNYKTTPPVLDSDGSFFLYSKLTVDKSRWQQGNVFSCSVMHEALHNHYTQESLSLSP light: not shown
		0.092 µM	0.011 µM	0.004 µM			IL6R-BP535/IL6R-L (antibody, human IgG1, kappa, copies: 2 + 2) heavy: QVQLQESGPGLVKPSETLSLTCAVSGHSISHDHAWSWVRQPPGEGLEWIGFISYSGITNYNPSLQGRVTISRDNSKNTLYLQMNSLRAEDTAVYYCARSLARTTAMDYWGEGTLVTVSSASTKGPSVFPLAPSSKSTSGGTAALGCLVKDYFPEPVTVSWNSGALTSGVHTFPAVLQSSGLYSLSSVVTVPSSSLGTQTYICNVNHKPSNTKVDKKVEPKSCDKTHTCPPCPAPDLLGDDSVFLFPPKPKDTLMISRTPEVTCVVIDVGEEDGEVKFNWYVDGVEVHNAKTKPREEQDNSTYRVVSVLTVLHQDWLNGKEYKCKVSNKGLPRPIEKTISKAKGQPREPQVYTLPPSRDELTKNQVSLTCLVKGFYPSDIAVEWESNGQPENNYKTTPMVLDSDGSFFLYSKLTVDKSRWQQGNVFSCSVMHEALHNHYTQESLSLSP light: not shown
		0.27 µM	0.029 µM	0.0069 µM			IL6R-BP537/IL6R-L (antibody, human IgG1, kappa, copies: 2 + 2) heavy: QVQLQESGPGLVKPSETLSLTCAVSGHSISHDHAWSWVRQPPGEGLEWIGFISYSGITNYNPSLQGRVTISRDNSKNTLYLQMNSLRAEDTAVYYCARSLARTTAMDYWGEGTLVTVSSASTKGPSVFPLAPSSKSTSGGTAALGCLVKDYFPEPVTVSWNSGALTSGVHTFPAVLQSSGLYSLSSVVTVPSSSLGTQTYICNVNHKPSNTKVDKKVEPKSCDKTHTCPPCPAPELLGDDSVFLFPPKPKDTLMISRTPEVTCVVIDVGEEDGEVKFNWYVDGVEVHNAKTKPREEQYNSTYRVVSVLTVLHQDWLNGKEYKCKVSNKALPRPIEKTISKAKGQPREPQVYTLPPSRDELTKNQVSLTCLVKGFYPSDIAVEWESNGQPENNYKTTPPVLDSDGSFFLYSKLTVDKSRWQQGNVFSCSVMHEALHNHYTQESLSLSP light: not shown
		0.086 µM	0.0034 µM	0.0031 µM			IL6R-BP553/IL6R-L (antibody, human IgG1, kappa, copies: 2 + 2) heavy: QVQLQESGPGLVKPSETLSLTCAVSGHSISHDHAWSWVRQPPGEGLEWIGFISYSGITNYNPSLQGRVTISRDNSKNTLYLQMNSLRAEDTAVYYCARSLARTTAMDYWGEGTLVTVSSASTKGPSVFPLAPSSKSTSGGTAALGCLVKDYFPEPVTVSWNSGALTSGVHTFPAVLQSSGLYSLSSVVTVPSSSLGTQTYICNVNHKPSNTKVDKKVEPKSCDKTHTCPPCPAPDLLGDDSVFLFPPKPKDTLMISRTPEVTCVVIDVAEEDGDVKFNWYVDGVEVHNAKTKPREEQYNSTYRVVSVLTVLHQDWLNGKEYKCKVSNKALPRPIEKTISKAKGQPREPQVYTLPPSRDELTKNQVSLTCLVKGFYPSDIAVEWESNGQPENNYKTTPPVLDSDGSFFLYSKLTVDKSRWQQGNVFSCSVMHEALHNHYTQESLSLSP light: not shown
